Reference: the supplement of paper PMC9732359
± gives the uncertainty stated by the source.

Assay: protein stability index of a GFP-peptide fusion (yeast GPS) (PSI 1-4); higher = more stable; sorted into four equal gates, so the index is relative within each strain
Conditions: pdr5∆
How it was run: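 The protein stability index of a peptide was calculated by multiplying its read frequency in each gate by that gate's number and adding the products. The peptides were tiled 17-residue stretches of yeast proteins, fused downstream of GFP on a Cherry-expressing plasmid and carried in yeast as a pooled library. Mid-log cultures in leucine-free medium were sorted into four equal gates by GFP/Cherry ratio, and each gate's plasmids were PCR-amplified and Illumina-sequenced.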

Sequence | protein stability index
FEGTDDNEEASVKLDLQ [BRN1] | 3.65 ± 0.11
FEIDDEHRIRVFFDKRI [RPS6A] | 3.02 ± 0.12
FEKDLMAYFDENLNRNW [BRN1] | 3.27 ± 0.063
FELSFTGAPPYYYNTKI [YMR129W/POM152] | 1.99 ± 0.12
FEQFEKFYEEKLWFQLS [RPN9] | 2.58 ± 0.26
FERPAVKEEKEDMETQA [RPC53] | 2.71 ± 0.23
FEVEMILMQQQMMARMA [SRP54] | 1.19 ± 0.076
FFGPTYYQRLRHMVDDK [RPB2] | 1.26 ± 0.046
FGATTNDDKKTEPDKPA [YJL041W/NSP1] | 2.48 ± 0.097
FGELQFAFLNAMFFGNY [AAR2] | 2.61 ± 0.085
FGNSLSNTVNANNYSSN [YDL088C/ASM4] | 3 ± 0.09
FGNSSPQLTFTHVANFM [YML103C/NUP188] | 3.03 ± 0.08
FGTGQSTFGFNNSAPNN [YJL041W/NSP1] | 3.29 ± 0.051
FHAEPSGTFYRYNAKAI [PUP2] | 1.81 ± 0.13
FHFRAPSRIFYKALRGM [RPL16A] | 2.4 ± 0.18
FIGRLPIMLRSKNCYLS [RPB2] | 1.58 ± 0.081
FISAARYKPKSHLWEID [RPC37] | 3.06 ± 0.082
FIYGEDGMDAAHIEKQS [RPO21] | 3.29 ± 0.084
FKERQMMVSYPKIDEDD [AAR2] | 3.2 ± 0.055
FKKTLRSRISSPHGLIN [SRB4] | 2.15 ± 0.056
FKQKLNELLKCKDDVQL [MTW1] | 2.96 ± 0.049
FKSTESNISDEKSRISE [YMR129W/POM152] | 3.01 ± 0.16
FKYRKARLEPGTAIGAI [RPO31] | 1.99 ± 0.092
FLESSKEIDPSQTTQLA [FAS2] | 3 ± 0.085
FLHESSFDSIDHSWFLL [CSI1] | 2.93 ± 0.061
FLKKNIIKENVKVARLA [FAS1] | 1.56 ± 0.26

Sequence | protein stability index
FLKKVMDTIQDKLINDV [ECM29] | 3.58 ± 0.2
FLLLAVNKYGLRADKLY [ISW2] | 2.5 ± 0.075
FLPRKRAASIRARVKAF [RPL3] | 1.18 ± 0.064
FLQGESPFSITFSVYHE [YMR129W/POM152] | 2.08 ± 0.056
FLQPLLLVGLIKTFYWL [NUT1] | 2.3 ± 0.062
FLTPMDSIDLAPNTLTN [YML103C/NUP188] | 1.68 ± 0.1
FLVRYACEPTAEKFVPI [SIR3] | 2.9 ± 0.097
FLYVLIPAGIYWYWWKN [QCR8] | 1.33 ± 0.13
FMLILALFVFYSPNTLG [COB] | 2.15 ± 0.057
FMRNGLLEGLNEKIEKR [UBP6] | 2.87 ± 0.18
FNATVDETKGFDDNDSG [MED2] | 3.17 ± 0.078
FNDSQAIVCYILFELYK [SRP72] | 2.31 ± 0.047
FNKEQLNKFKKAIFQFV [ECM29] | 1.27 ± 0.096
FNKSAELSRIENEVENI [YCS4] | 3.4 ± 0.19
FNTFWDEKGNEIKVGKQ [ARP9] | 2.53 ± 0.089
FNTNSSFTPSTVPNINF [YOR098C/NUP1] | 2.42 ± 0.032
FNYNIFMHDPSVFYNIA [SIR2] | 1.69 ± 0.037
FPMKQGVLLPTRIKLLL [RPS6A] | 1.39 ± 0.053
FPMPYENEEFITFLQTL [ECM29] | 2.53 ± 0.034
FPRDGKAPEAEQVLSAA [RPL13B] | 2.9 ± 0.086
FPSSETTSLNPIQSKVF [BRR2] | 2.52 ± 0.082
FPTTSHESLVTTLLRKK [MED8] | 1.82 ± 0.12
FQETLDSTVVYPLPKFP [MED8] | 3.19 ± 0.044
FQFFPKELDALQEKEQL [ISW2] | 2.97 ± 0.074
FQIEADFIGHNSNINTL [ASC1] | 2.63 ± 0.049
FQYGSRLPTFLKHKSIC [RPP1] | 1.91 ± 0.055

Sequence | protein stability index
FQYVIDESSGTSRIDEE [SMC4] | 2.86 ± 0.09
FRGNISQPKIGYGSNKK [RPL32] | 2.88 ± 0.06
FRKKRKFELGRQPANTK [RPS8A] | 3.12 ± 0.066
FRNPTPLLSNYASKINR [RGR1] | 1.6 ± 0.045
FRTDMLQVADKFFRVKY [SMC3] | 2.49 ± 0.066
FSHLAGGKIINKLGNDP [BRR2] | 3.1 ± 0.19
FSQKEMAFNLLGLLTPE [FAS2] | 2.32 ± 0.072
FSWISVVNDLVGEKLVV [SIR3] | 2.58 ± 0.14
FTIRGFKQKLNELLKCK [MTW1] | 2.92 ± 0.073
FTNELKAELDRYKRENQ [SEM1] | 3.38 ± 0.14
FVAATTNAGYTIELAGG [FAS1] | 2.97 ± 0.059
FVCLSCSHIFTSDQKNK [RPB9] | 2.28 ± 0.093
FVHYGEIKNDFIMVKGC [RPL3] | 2.14 ± 0.067
FVRGDSKIFRFQNSKSA [RPL24A] | 2.63 ± 0.057
FVSRPDRTMLAPMDFAI [FAS1] | 2.82 ± 0.11
FVYNKVNETEAILYTKP [YGR119C/NUP57] | 3.06 ± 0.072
FYLMVSSLSFGPENALN [YJL039C/NUP192] | 1.37 ± 0.047
FYMKKDAVEGVSECIIL [RPO31] | 3.07 ± 0.29
GAAANNNDQKRQQAYKT [YJL041W/NSP1] | 3.02 ± 0.056
GAAFKVISNLVPKLESS [YJL039C/NUP192] | 2.59 ± 0.11
GAALKDIEIVRVNKNAP [FAS2] | 3.24 ± 0.12
GAIIGWTRGTGLMSANN [FAS2] | 2.83 ± 0.083
GALVDRTQPWSIMPDLY [RPS0A] | 2.82 ± 0.091
GASGEERLMSRPFGVAL [PUP2] | 3.24 ± 0.079
GAVSLNPSITRLEEESS [RRP4] | 3.03 ± 0.14
GCLVKREDLNKAEYVDQ [RPO31] | 3.13 ± 0.21

Sequence | protein stability index
GCYFEEKRYDDKLLDFI [CSN12] | 2.92 ± 0.098
GDKDTRADIVRNIILEA [ISW2] | 2.41 ± 0.06
GDLLNAEVQSLFQDGSA [RRP4] | 2.74 ± 0.13
GDMTNSDAQSNLGSNVR [REC8] | 3.52 ± 0.15
GDNTSDVDMEDRNLTEF [RRI1] | 3.08 ± 0.13
GDPFDYKAQADTFYMNV [RPB3] | 3.44 ± 0.1
GDTIELAIIGDENPDLL [PRE8] | 3.11 ± 0.17
GEHISAIVPGQSISGTL [SWP82] | 3.05 ± 0.13
GELVLDIEVPDVNALKF [SNF12] | 3.55 ± 0.12
GETMWVPIKSSKSGRIF [RPN13] | 2.6 ± 0.15
GETRMKMLNEFVKKTSE [SMC2] | 3 ± 0.092
GFDIQKSCEPVSISTSV [SIR4] | 1.73 ± 0.13
GFGRKGKAKGDIPGVRF [RPS23A] | 3.23 ± 0.13
GFSTGIGDTIADGPTMR [RPO21] | 3.15 ± 0.17
GGAKSRGVRPYKHIDAS [RPS19A] | 3.38 ± 0.14
GGDTCSSDGALCMDSSY [POP1] | 2.54 ± 0.051
GGDWERRNRYKTYYGIH [RPN7] | 1.4 ± 0.074
GGFTNLTSQAPQTTQMF [YDL088C/ASM4] | 3.09 ± 0.091
GGGHVSQVYAIRQAIAK [RPS16A] | 2.85 ± 0.045
GGIETILEHTLFKGTGF [PRP8] | 3.28 ± 0.21
GGKIINKLGNDPSLNLK [BRR2] | 1.76 ± 0.073
GGLRPFGVSFIYAGYDD [PRE9] | 2.52 ± 0.075
GGLSGEESIKIYPLIKP [UBP6] | 2.68 ± 0.076
GGTSDMNYLLDNKINEI [CSI1] | 2.87 ± 0.087
